Values quoted from earlier work, collected in publication PMC8980424.

Key:
IFNAR2 (Homo sapiens) = IFNAR2 (Homo sapiens) (UniProt P48551)
IFNAR1 (Homo sapiens) = IFNAR1 (Homo sapiens) (UniProt P17181)
IFNAR2 (Mus musculus) = IFNAR2 (Mus musculus) (UniProt O35664)
IFNAR1 (Mus musculus) = IFNAR1 (Mus musculus) (UniProt P33896)
UniProt P33896, sequence (P33896 27-429): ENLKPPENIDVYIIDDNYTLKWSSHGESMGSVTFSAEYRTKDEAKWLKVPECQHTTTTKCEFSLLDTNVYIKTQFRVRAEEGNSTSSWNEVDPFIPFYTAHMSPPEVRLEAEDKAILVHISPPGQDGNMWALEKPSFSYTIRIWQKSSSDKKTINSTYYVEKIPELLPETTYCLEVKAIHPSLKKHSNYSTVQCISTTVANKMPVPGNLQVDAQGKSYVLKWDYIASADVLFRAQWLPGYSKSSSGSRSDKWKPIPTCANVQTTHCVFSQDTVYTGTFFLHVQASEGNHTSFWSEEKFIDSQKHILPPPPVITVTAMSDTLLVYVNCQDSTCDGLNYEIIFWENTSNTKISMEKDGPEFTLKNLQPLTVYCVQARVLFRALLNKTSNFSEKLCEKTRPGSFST

UniProt P17181, sequence (P17181 28-436): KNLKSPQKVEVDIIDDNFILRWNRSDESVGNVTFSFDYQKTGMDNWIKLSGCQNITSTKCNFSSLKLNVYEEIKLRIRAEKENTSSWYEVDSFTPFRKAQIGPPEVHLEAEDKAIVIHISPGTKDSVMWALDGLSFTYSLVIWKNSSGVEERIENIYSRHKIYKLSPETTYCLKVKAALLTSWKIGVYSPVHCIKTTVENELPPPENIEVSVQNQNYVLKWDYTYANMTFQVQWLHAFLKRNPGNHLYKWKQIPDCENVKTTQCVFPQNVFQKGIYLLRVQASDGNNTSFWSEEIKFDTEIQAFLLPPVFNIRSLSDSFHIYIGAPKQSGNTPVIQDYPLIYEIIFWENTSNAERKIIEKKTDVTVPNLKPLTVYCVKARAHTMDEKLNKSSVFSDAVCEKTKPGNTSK
UniProt O35664, sequence (O35664 22-242): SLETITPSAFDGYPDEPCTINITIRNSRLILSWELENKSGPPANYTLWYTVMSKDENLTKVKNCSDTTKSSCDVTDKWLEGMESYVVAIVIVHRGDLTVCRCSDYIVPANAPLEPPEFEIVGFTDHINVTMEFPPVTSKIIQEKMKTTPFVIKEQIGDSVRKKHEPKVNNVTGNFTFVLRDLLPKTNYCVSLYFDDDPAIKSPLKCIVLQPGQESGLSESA
UniProt P48551, sequence (P48551 27-243): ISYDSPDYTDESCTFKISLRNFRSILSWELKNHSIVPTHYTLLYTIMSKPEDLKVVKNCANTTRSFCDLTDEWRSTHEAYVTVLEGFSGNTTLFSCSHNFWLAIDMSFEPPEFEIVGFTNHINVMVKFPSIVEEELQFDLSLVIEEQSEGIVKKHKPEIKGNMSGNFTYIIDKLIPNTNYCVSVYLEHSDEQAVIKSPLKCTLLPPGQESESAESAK

| Kd (IFNAR2 (Homo sapiens)) | Kd (IFNAR1 (Homo sapiens)) | Kd (IFNAR2 (Mus musculus)) | Kd (IFNAR1 (Mus musculus)) | Substance |
| --- | --- | --- | --- | --- |
| 0.1 nM | 30 nM | – | – | Interferon beta (from UniProt P01574) |
| – | – | 1700 nM | 10 nM | Interferon beta (from UniProt P01575) |
